# Laboratory results taken from PMC9482650, “Quantitative fragmentomics allow affinity mapping of interactomes” (Nature Communications, 2022).
# T1: DLG3_3, Q92796
# T1 sequence (Q92796 374-475, limits assumed, looked up): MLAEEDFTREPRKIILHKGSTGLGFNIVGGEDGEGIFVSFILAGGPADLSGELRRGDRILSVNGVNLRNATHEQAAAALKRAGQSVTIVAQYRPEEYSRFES
# T2: NHERF3_1, Q5T2W1
# T2 sequence (Q5T2W1 4-100, limits assumed, looked up): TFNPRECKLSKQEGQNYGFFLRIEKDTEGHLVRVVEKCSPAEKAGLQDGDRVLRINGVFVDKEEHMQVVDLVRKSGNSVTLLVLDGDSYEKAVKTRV
# T3: LNX2_3, Q8N448
# T3 sequence (Q8N448 463-564, limits assumed, looked up): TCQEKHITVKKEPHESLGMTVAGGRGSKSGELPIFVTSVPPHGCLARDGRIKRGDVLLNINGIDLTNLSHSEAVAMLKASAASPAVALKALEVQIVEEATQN
# T4: RHPN1, Q8TCX5
# T4 sequence (Q8TCX5 508-602, limits assumed, looked up): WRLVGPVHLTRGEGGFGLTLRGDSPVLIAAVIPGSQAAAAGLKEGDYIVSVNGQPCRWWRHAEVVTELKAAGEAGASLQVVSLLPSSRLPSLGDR
# T5: APBA3_1, O96018
# T5 sequence (O96018 389-490, limits assumed, looked up): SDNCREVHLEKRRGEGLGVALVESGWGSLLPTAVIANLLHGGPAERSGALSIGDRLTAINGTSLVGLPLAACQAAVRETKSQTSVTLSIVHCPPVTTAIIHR
# T6: NHERF3_4, Q5T2W1
# T6 sequence (Q5T2W1 373-468, limits assumed, looked up): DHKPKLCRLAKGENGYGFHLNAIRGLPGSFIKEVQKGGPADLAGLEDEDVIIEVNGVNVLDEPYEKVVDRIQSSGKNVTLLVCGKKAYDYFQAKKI
# T7: SYNJ2BP, P57105
# T7 sequence (P57105 8-110, limits assumed, looked up): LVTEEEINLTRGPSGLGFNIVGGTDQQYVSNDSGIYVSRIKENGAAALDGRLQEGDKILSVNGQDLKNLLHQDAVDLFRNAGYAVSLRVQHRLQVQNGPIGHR
# T8: DFNB31_2, Q9P202
# T8 sequence (Q9P202 274-371, limits assumed, looked up): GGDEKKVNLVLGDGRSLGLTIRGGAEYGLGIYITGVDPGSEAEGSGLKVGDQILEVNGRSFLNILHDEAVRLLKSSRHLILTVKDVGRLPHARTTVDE
# T9: ARHGAP21, Q5T5U3
# T9 sequence (Q5T5U3 45-169, limits assumed, looked up): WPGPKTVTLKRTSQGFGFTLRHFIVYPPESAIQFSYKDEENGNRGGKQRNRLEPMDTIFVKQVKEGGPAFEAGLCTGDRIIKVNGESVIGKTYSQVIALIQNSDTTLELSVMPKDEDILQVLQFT
# T10: LRRC7, Q96NW7
# T10 sequence (Q96NW7 1440-1537, limits assumed, looked up): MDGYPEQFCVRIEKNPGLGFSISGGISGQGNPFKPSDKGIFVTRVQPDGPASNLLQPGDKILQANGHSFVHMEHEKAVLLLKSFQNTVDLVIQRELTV
# What was measured:
# Test in all cases: holdup assay
# Set-up in all cases: key: below the threshold = too weak to quantify, mostly under pKd 3.1 to 4
# [1] = molecular target: T1, DLG3_3, Q92796
# [2] = molecular target: T2, NHERF3_1, Q5T2W1
# [3] = molecular target: T3, LNX2_3, Q8N448
# [4] = molecular target: FRMPD2_2, Q68DX3
# Sequence of FRMPD2_2, Q68DX3 (Q68DX3 944-1038): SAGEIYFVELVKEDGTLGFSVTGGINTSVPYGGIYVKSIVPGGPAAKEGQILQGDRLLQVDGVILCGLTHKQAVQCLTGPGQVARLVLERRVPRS
# [5] = molecular target: MAST2, Q6P0Q8
# Sequence of MAST2, Q6P0Q8 (Q6P0Q8 1099-1202): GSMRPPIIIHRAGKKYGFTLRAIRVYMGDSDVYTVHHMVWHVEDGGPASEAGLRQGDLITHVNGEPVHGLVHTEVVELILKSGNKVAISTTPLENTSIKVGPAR
# [6] = molecular target: SCRIB_1, Q14160
# Sequence of SCRIB_1, Q14160 (Q14160 718-814): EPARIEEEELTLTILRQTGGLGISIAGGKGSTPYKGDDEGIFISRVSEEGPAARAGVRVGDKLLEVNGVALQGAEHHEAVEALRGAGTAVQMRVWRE
# [7] = molecular target: T4, RHPN1, Q8TCX5
# [8] = molecular target: DLG4_3, P78352
# Sequence of DLG4_3, P78352 (P78352 306-403): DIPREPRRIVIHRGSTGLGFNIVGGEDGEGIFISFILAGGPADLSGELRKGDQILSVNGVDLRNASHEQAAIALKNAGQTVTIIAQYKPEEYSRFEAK
# [9] = molecular target: LNX1_2, Q8TBB1
# Sequence of LNX1_2, Q8TBB1 (Q8TBB1 371-470): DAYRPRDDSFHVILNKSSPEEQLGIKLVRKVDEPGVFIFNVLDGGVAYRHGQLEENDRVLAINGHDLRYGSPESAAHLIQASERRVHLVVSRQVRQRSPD
# [10] = molecular target: T5, APBA3_1, O96018
# [11] = molecular target: T6, NHERF3_4, Q5T2W1
# [12] = molecular target: DLG4_2, P78352
# Sequence of DLG4_2, P78352 (P78352 155-259): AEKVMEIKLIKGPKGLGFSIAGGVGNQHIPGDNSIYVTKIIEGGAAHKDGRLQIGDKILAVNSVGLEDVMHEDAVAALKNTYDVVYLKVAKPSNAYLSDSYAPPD
# [13] = molecular target: SNX27, Q96L92
# [14] = molecular target: GRIP2_6, Q9C0E4
# Sequence of GRIP2_6, Q9C0E4 (Q9C0E4 648-740): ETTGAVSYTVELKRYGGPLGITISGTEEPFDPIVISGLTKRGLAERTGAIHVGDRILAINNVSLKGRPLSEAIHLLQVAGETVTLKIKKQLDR
# [15] = molecular target: GRIP2_3, Q9C0E4
# Sequence of GRIP2_3, Q9C0E4 (Q9C0E4 238-339): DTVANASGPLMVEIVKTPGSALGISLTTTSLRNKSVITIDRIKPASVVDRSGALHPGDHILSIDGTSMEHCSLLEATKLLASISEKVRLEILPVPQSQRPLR
# [16] = molecular target: T7, SYNJ2BP, P57105
# [17] = molecular target: DLG4_1, P78352
# Sequence of DLG4_1, P78352 (P78352 62-152): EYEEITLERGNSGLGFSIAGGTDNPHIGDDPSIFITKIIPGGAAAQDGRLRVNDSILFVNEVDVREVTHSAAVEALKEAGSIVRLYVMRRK
# [18] = molecular target: GIPC2, Q8TF65
# Sequence of GIPC2, Q8TF65 (Q8TF65 112-203): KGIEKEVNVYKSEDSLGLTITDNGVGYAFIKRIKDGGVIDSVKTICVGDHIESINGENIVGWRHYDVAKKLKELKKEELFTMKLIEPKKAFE
# [19] = molecular target: FRMPD4, Q14CM0
# Sequence of FRMPD4, Q14CM0 (Q14CM0 67-160): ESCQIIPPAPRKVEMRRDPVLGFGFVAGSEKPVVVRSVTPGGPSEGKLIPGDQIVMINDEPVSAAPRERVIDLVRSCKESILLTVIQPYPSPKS
# [20] = molecular target: T8, DFNB31_2, Q9P202
# [21] = molecular target: NHERF4_4, Q86UT5
# Sequence of NHERF4_4, Q86UT5 (Q86UT5 464-550): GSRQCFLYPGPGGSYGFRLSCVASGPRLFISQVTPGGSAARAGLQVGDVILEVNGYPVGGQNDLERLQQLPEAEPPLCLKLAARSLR
# [22] = molecular target: T9, ARHGAP21, Q5T5U3
# [23] = molecular target: DLG1_2, Q12959
# Sequence of DLG1_2, Q12959 (Q12959 314-412): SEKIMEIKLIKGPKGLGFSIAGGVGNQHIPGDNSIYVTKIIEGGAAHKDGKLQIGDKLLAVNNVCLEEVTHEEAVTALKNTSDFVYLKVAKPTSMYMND
# [24] = molecular target: DLG5_1, Q8TDM6
# Sequence of DLG5_1, Q8TDM6 (Q8TDM6 617-713): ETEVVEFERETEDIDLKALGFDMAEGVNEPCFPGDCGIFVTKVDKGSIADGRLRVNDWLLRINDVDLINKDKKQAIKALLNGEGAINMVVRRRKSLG
# [25] = molecular target: T10, LRRC7, Q96NW7
# [26] = molecular target: MAGI3_2, Q5TCQ9
# Sequence of MAGI3_2, Q5TCQ9 (Q5TCQ9 398-503): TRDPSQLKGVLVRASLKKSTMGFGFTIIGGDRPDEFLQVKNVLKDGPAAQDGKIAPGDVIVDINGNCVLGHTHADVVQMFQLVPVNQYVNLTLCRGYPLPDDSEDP
# [27] = molecular target: GORASP2, Q9H8Y8
# [28] = plain residues with an end cap or a label only (N-terminal biotin on a linker: ttds)
# [29] = plain residues with an end cap or a label only (N-terminal biotin on a linker: ahx)
binder,measurement,setting,value
"SRSRRRETAL [HPV33-E6, P06427]",pKd,[1]; [28],5.07
same,pKd,[2]; [28],5.49
same,pKd,[3]; [28],below the threshold
same,pKd,[4]; [28],below the threshold
same,pKd,[5]; [28],5.37
same,pKd,[6]; [28],5.66
same,pKd,[7]; [28],3.81
same,pKd,[8]; [28],5.32
same,pKd,[9]; [28],below the threshold
same,pKd,[10]; [28],below the threshold
same,pKd,[11]; [28],3.97
same,pKd,[12]; [28],4.77
same,pKd,[13]; [28],4.91
same,pKd,[14]; [28],below the threshold
same,pKd,[15]; [28],below the threshold
same,pKd,[16]; [28],5.3
same,pKd,[17]; [28],4.57
same,pKd,[18]; [28],below the threshold
same,pKd,[19]; [28],3.87
same,pKd,[20]; [28],3.55
same,pKd,[21]; [28],below the threshold
same,pKd,[22]; [28],3.45
same,pKd,[23]; [28],5.14
same,pKd,[24]; [28],below the threshold
same,pKd,[25]; [28],3.68
same,pKd,[26]; [28],5.39
same,pKd,[27]; [28],4.26
"ADENEQVSAV [RAPGEF6, Q8TEU7]",pKd,[1]; [29],below the threshold
same,pKd,[2]; [29],3.53
same,pKd,[3]; [29],below the threshold
same,pKd,[4]; [29],4.85
same,pKd,[5]; [29],4.79
same,pKd,[6]; [29],3.65
same,pKd,[7]; [29],4.42
same,pKd,[8]; [29],below the threshold
same,pKd,[9]; [29],below the threshold
same,pKd,[10]; [29],below the threshold
same,pKd,[11]; [29],below the threshold
same,pKd,[12]; [29],4.05
same,pKd,[13]; [29],5.07
same,pKd,[14]; [29],below the threshold
same,pKd,[15]; [29],below the threshold
same,pKd,[16]; [29],3.74
same,pKd,[17]; [29],3.6
same,pKd,[18]; [29],below the threshold
same,pKd,[19]; [29],below the threshold
same,pKd,[20]; [29],below the threshold
same,pKd,[21]; [29],below the threshold
same,pKd,[22]; [29],below the threshold
same,pKd,[23]; [29],4.01
same,pKd,[24]; [29],below the threshold
same,pKd,[25]; [29],below the threshold
same,pKd,[26]; [29],3.61
same,pKd,[27]; [29],below the threshold
